Results as given in patent publication US20190177376A1.

Target: human IgG (human)
Experiment: ELISA, IgG coated on plate, detection with Strep-Tactin-HRP

For domain B (from UniProt P38507 212-269), the Kd was 3.1 nM.
